Measured values from the supplement of paper PMC7125110.
± gives the standard error. Variants at the floor of the assay were thinned out.

B1: glmS ribozyme (parent)
chain: AUAAAAGCGCCAGAACUACAGAAAUGUAGUUGACGAGGAGGAGGUUUAUCGAAUUUUCGGCGGAUGCCUCCAAA

Tests used:
Details in all cases: with glucosamine-6-phosphate
glucosamine-6-phosphate [1] = variants of: B1; assay: self-cleavage kobs at 160 uM GlcN6P; higher = faster cleavage; RNA array
Outline: (§1)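 Glucosamine-6-phosphate (40 μM to 10 mM) in HEPES/KCl/Mg(OAc)2 buffer was flowed over sequenced MiSeq chips, and tiles were imaged over ~14 h. Barcoded ribozyme variants there had been transcribed in situ by E. coli RNA polymerase and were tracked through a hybridised Cy3 probe at 37 °C. One- or two-exponential decay fits to per-tile medians, normalised to baseline and to non-cleaving reference variants, gave kobs. kcat and KM came from weighted Michaelis–Menten fits across concentrations.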

glucosamine-6-phosphate [2] = variants of: B1; assay: self-cleavage kobs at 640 uM GlcN6P; higher = faster cleavage; RNA array
Outline: as §1

glucosamine-6-phosphate [3] = variants of: B1; assay: self-cleavage kobs at 2500 uM GlcN6P; higher = faster cleavage; RNA array
Outline: as §1

glucosamine-6-phosphate [4] = variants of: B1; assay: self-cleavage kobs at 10000 uM GlcN6P; higher = faster cleavage; RNA array
Outline: as §1

Row | Variant | self-cleavage kobs at 160 uM GlcN6P (glucosamine-6-phosphate [1]) | self-cleavage kobs at 640 uM GlcN6P (glucosamine-6-phosphate [2]) | self-cleavage kobs at 2500 uM GlcN6P (glucosamine-6-phosphate [3]) | self-cleavage kobs at 10000 uM GlcN6P (glucosamine-6-phosphate [4])
1 | G9A G29A A42G A48C U65A | < 1e-05 s⁻¹ | < 1e-05 s⁻¹ | < 1e-05 s⁻¹ | –
2 | G41A G60A G63U | < 1e-05 s⁻¹ | < 1e-05 s⁻¹ | < 1e-05 s⁻¹ | < 1e-05 s⁻¹
3 | G7C C8G A52G | < 1e-05 s⁻¹ | < 1e-05 s⁻¹ | < 1e-05 s⁻¹ | –
4 | C34U A52C A64U C67U | < 1e-05 s⁻¹ | < 1e-05 s⁻¹ | < 1e-05 s⁻¹ | –
5 | U30C A36G | < 1e-05 s⁻¹ | – | – | < 1e-05 s⁻¹
6 | G37A G62C | < 1e-05 s⁻¹ | < 1e-05 s⁻¹ | < 1e-05 s⁻¹ | < 1e-05 s⁻¹
7 | U49G G60C | < 1e-05 s⁻¹ | < 1e-05 s⁻¹ | < 1e-05 s⁻¹ | –
8 | A53G U55A G66U | 0.000163 ± 4.6e-05 s⁻¹ | 0.000436 ± 9.4e-05 s⁻¹ | 0.000351 ± 0.00011 s⁻¹ | –
9 | A6C A12G C68G C70G | < 1e-05 s⁻¹ | < 1e-05 s⁻¹ | < 1e-05 s⁻¹ | –
10 | G9U C34U U54A | < 1e-05 s⁻¹ | – | – | –
11 | U31G G43U G66U | < 1e-05 s⁻¹ | – | < 1e-05 s⁻¹ | –
12 | C11G U46G C61A G66A | < 1e-05 s⁻¹ | < 1e-05 s⁻¹ | < 1e-05 s⁻¹ | –
13 | A48G U57A | < 1e-05 s⁻¹ | < 1e-05 s⁻¹ | < 1e-05 s⁻¹ | –
14 | C8G C16U C34U U65G | < 1e-05 s⁻¹ | – | – | –
15 | C11A C58U C68A | 7.67e-05 ± 3.2e-05 s⁻¹ | – | 7.25e-05 ± 2.7e-05 s⁻¹ | 5.61e-05 ± 1.5e-05 s⁻¹
16 | G38C A64G | < 1e-05 s⁻¹ | < 1e-05 s⁻¹ | – | –
17 | G63A C70G C71G | 5.57e-05 ± 1.4e-05 s⁻¹ | 4.83e-05 ± 1.9e-05 s⁻¹ | – | –
18 | C50G G63A A64U | 0.000145 ± 4.6e-05 s⁻¹ | 0.000136 ± 4.5e-05 s⁻¹ | – | –
19 | A48G G66C | < 1e-05 s⁻¹ | < 1e-05 s⁻¹ | < 1e-05 s⁻¹ | < 1e-05 s⁻¹
20 | U56A G63C | < 1e-05 s⁻¹ | – | < 1e-05 s⁻¹ | –
21 | A12U U45G U56A | 0.000953 ± 0.00021 s⁻¹ | 0.00298 ± 0.0006 s⁻¹ | – | –
22 | A12C A42C A52C C61U U69A | < 1e-05 s⁻¹ | – | – | –
23 | G44U C50A | < 1e-05 s⁻¹ | < 1e-05 s⁻¹ | < 1e-05 s⁻¹ | < 1e-05 s⁻¹
24 | G37A G59A G62A | < 1e-05 s⁻¹ | – | – | –
